In the array DNA melting data of Ke et al.:

Experiment: melting temperature; melt of duplexes
Details: sodium 0.0675 M; strand 1 µM

| Substance | Tm |
| --- | --- |
| CGACGTGCCGCATGTGCTG+CAGCACATGTCGCACGTCG ((((((((..(((((((((+)))))))))..)))))))) | 54.3 °C |
| CGACGTGCCGCATGTGCTG+CAGCACATGTTGCACGTCG ((((((((..(((((((((+)))))))))..)))))))) | 54.5 °C |
| CGACGTGCCGCATGTGCTG+CAGCACATTAGGCACGTCG (((((((((..((((((((+))))))))..))))))))) | 55.3 °C |
| CGACGTGCCGCATGTGCTG+CAGCACATTATGCACGTCG ((((((((...((((((((+))))))))...)))))))) | 46.4 °C |
| CGACGTGCCGCATGTGCTG+CAGCACATTCTGCACGTCG ((((((((.(.((((((((+)))))))).).)))))))) | 48.8 °C |
| CGACGTGCCGCATGTGCTG+CAGCACATTGTGCACGTCG ((((((((...((((((((+))))))))...)))))))) | 45.7 °C |
| CGACGTGCCGCATGTGCTG+CAGCACATTTGGCACGTCG (((((((((..((((((((+))))))))..))))))))) | 53.9 °C |
| CGACGTGCCGCATGTGCTG+CAGCACATTTTGCACGTCG ((((((((...((((((((+))))))))...)))))))) | 46.2 °C |
| CGACGTGCCGGATGTGCTG+CAGCACATAACGCACGTCG ((((((((...((((((((+))))))))...)))))))) | 50 °C |
| CGACGTGCCGGATGTGCTG+CAGCACATAATGCACGTCG ((((((((...((((((((+))))))))...)))))))) | 48.6 °C |
| CGACGTGCCGGATGTGCTG+CAGCACATACGGCACGTCG ((((((((((.((((((((+)))))))).)))))))))) | 63.8 °C |
| CGACGTGCCGGATGTGCTG+CAGCACATAGGGCACGTCG (((((((((..((((((((+))))))))..))))))))) | 55.9 °C |
| CGACGTGCCGGATGTGCTG+CAGCACATATCGCACGTCG ((((((((...((((((((+))))))))...)))))))) | 49.7 °C |
| CGACGTGCCGGATGTGCTG+CAGCACATCATGCACGTCG ((((((((..(((((((((+)))))))))..)))))))) | 54.8 °C |
| CGACGTGCCGGATGTGCTG+CAGCACATCCAGCACGTCG ((((((((.((((((((((+)))))))))).)))))))) | 59 °C |
| CGACGTGCCGGATGTGCTG+CAGCACATCCTGCACGTCG ((((((((.((((((((((+)))))))))).)))))))) | 58.9 °C |
| CGACGTGCCGGATGTGCTG+CAGCACATCGCGCACGTCG ((((((((..(((((((((+)))))))))..)))))))) | 55.4 °C |
| CGACGTGCCGGATGTGCTG+CAGCACATGAAGCACGTCG ((((((((...((((((((+))))))))...)))))))) | 49.9 °C |
| CGACGTGCCGGATGTGCTG+CAGCACATGACGCACGTCG ((((((((...((((((((+))))))))...)))))))) | 46.3 °C |
| CGACGTGCCGGATGTGCTG+CAGCACATGATGCACGTCG ((((((((...((((((((+))))))))...)))))))) | 49 °C |
| CGACGTGCCGGATGTGCTG+CAGCACATGCAGCACGTCG ((((((((.(.((((((((+)))))))).).)))))))) | 53.1 °C |
| CGACGTGCCGGATGTGCTG+CAGCACATGCCGCACGTCG ((((((((.(.((((((((+)))))))).).)))))))) | 53.4 °C |
| CGACGTGCCGGATGTGCTG+CAGCACATGCTGCACGTCG ((((((((.(.((((((((+)))))))).).)))))))) | 51.3 °C |
| CGACGTGCCGGATGTGCTG+CAGCACATGTCGCACGTCG ((((((((...((((((((+))))))))...)))))))) | 49.4 °C |

| Substance | Tm |
| --- | --- |
| CGACGTGCCGGATGTGCTG+CAGCACATGTGGCACGTCG (((((((((..((((((((+))))))))..))))))))) | 57.3 °C |
| CGACGTGCCGGATGTGCTG+CAGCACATGTTGCACGTCG ((((((((...((((((((+))))))))...)))))))) | 48.1 °C |
| CGACGTGCCGGATGTGCTG+CAGCACATTAAGCACGTCG ((((((((...((((((((+))))))))...)))))))) | 50.4 °C |
| CGACGTGCCGGATGTGCTG+CAGCACATTCAGCACGTCG ((((((((.(.((((((((+)))))))).).)))))))) | 52.4 °C |
| CGACGTGCCGGATGTGCTG+CAGCACATTCGGCACGTCG ((((((((((.((((((((+)))))))).)))))))))) | 62.4 °C |
| CGACGTGCCGGATGTGCTG+CAGCACATTGAGCACGTCG ((((((((...((((((((+))))))))...)))))))) | 50.8 °C |
| CGACGTGCCGGATGTGCTG+CAGCACATTGCGCACGTCG ((((((((...((((((((+))))))))...)))))))) | 49.9 °C |
| CGACGTGCCGGATGTGCTG+CAGCACATTTCGCACGTCG ((((((((...((((((((+))))))))...)))))))) | 49.1 °C |
| CGACGTGCCGTATGTGCTG+CAGCACATACGGCACGTCG (((((((((((((((((((+))))))))))))))))))) | 66.2 °C |
| CGACGTGCCGTATGTGCTG+CAGCACATACTGCACGTCG ((((((((.((((((((((+)))))))))).)))))))) | 56.9 °C |
| CGACGTGCCGTATGTGCTG+CAGCACATAGCGCACGTCG ((((((((..(((((((((+)))))))))..)))))))) | 52.7 °C |
| CGACGTGCCGTATGTGCTG+CAGCACATATCGCACGTCG ((((((((..(((((((((+)))))))))..)))))))) | 51.8 °C |
| CGACGTGCCGTATGTGCTG+CAGCACATCAAGCACGTCG ((((((((...((((((((+))))))))...)))))))) | 49.3 °C |
| CGACGTGCCGTATGTGCTG+CAGCACATCACGCACGTCG ((((((((...((((((((+))))))))...)))))))) | 51.2 °C |
| CGACGTGCCGTATGTGCTG+CAGCACATCAGGCACGTCG (((((((((..((((((((+))))))))..))))))))) | 57.1 °C |
| CGACGTGCCGTATGTGCTG+CAGCACATCGTGCACGTCG ((((((((...((((((((+))))))))...)))))))) | 51 °C |
| CGACGTGCCGTATGTGCTG+CAGCACATCTAGCACGTCG ((((((((...((((((((+))))))))...)))))))) | 49.1 °C |
| CGACGTGCCGTATGTGCTG+CAGCACATCTGGCACGTCG (((((((((..((((((((+))))))))..))))))))) | 55.3 °C |
| CGACGTGCCGTATGTGCTG+CAGCACATGAGGCACGTCG (((((((((..((((((((+))))))))..))))))))) | 58.7 °C |
| CGACGTGCCGTATGTGCTG+CAGCACATGATGCACGTCG ((((((((...((((((((+))))))))...)))))))) | 49.2 °C |
| CGACGTGCCGTATGTGCTG+CAGCACATGCCGCACGTCG ((((((((.(.((((((((+)))))))).).)))))))) | 51.6 °C |
| CGACGTGCCGTATGTGCTG+CAGCACATGGAGCACGTCG ((((((((...((((((((+))))))))...)))))))) | 50.8 °C |
| CGACGTGCCGTATGTGCTG+CAGCACATGGCGCACGTCG ((((((((...((((((((+))))))))...)))))))) | 50.3 °C |
| CGACGTGCCGTATGTGCTG+CAGCACATGTAGCACGTCG ((((((((...((((((((+))))))))...)))))))) | 49.1 °C |

| Substance | Tm |
| --- | --- |
| CGACGTGCCGTATGTGCTG+CAGCACATGTCGCACGTCG ((((((((...((((((((+))))))))...)))))))) | 49 °C |
| CGACGTGCCGTATGTGCTG+CAGCACATTACGCACGTCG ((((((((...((((((((+))))))))...)))))))) | 50.9 °C |
| CGACGTGCCGTATGTGCTG+CAGCACATTAGGCACGTCG (((((((((..((((((((+))))))))..))))))))) | 57.1 °C |
| CGACGTGCCGTATGTGCTG+CAGCACATTCAGCACGTCG ((((((((.(.((((((((+)))))))).).)))))))) | 50.1 °C |
| CGACGTGCCGTATGTGCTG+CAGCACATTGAGCACGTCG ((((((((...((((((((+))))))))...)))))))) | 49.8 °C |
| CGACGTGCCGTATGTGCTG+CAGCACATTGCGCACGTCG ((((((((...((((((((+))))))))...)))))))) | 49.3 °C |
| CGACGTGCCGTATGTGCTG+CAGCACATTGGGCACGTCG (((((((((..((((((((+))))))))..))))))))) | 54.7 °C |
| CGACGTGCCGTATGTGCTG+CAGCACATTTAGCACGTCG ((((((((...((((((((+))))))))...)))))))) | 48.4 °C |
| CGACGTGCCGTATGTGCTG+CAGCACATTTCGCACGTCG ((((((((...((((((((+))))))))...)))))))) | 48.5 °C |
| CGACGTGCCGTATGTGCTG+CAGCACATTTTGCACGTCG ((((((((...((((((((+))))))))...)))))))) | 47.5 °C |
| CGACGTGCCTAATGTGCTG+CAGCACATAAAGCACGTCG ((((((((.(.((((((((+)))))))).).)))))))) | 50.3 °C |
| CGACGTGCCTAATGTGCTG+CAGCACATAGCGCACGTCG ((((((((...((((((((+))))))))...)))))))) | 50.3 °C |
| CGACGTGCCTAATGTGCTG+CAGCACATAGGGCACGTCG (((((((((..((((((((+))))))))..))))))))) | 55.4 °C |
| CGACGTGCCTAATGTGCTG+CAGCACATAGTGCACGTCG ((((((((...((((((((+))))))))...)))))))) | 47.2 °C |
| CGACGTGCCTAATGTGCTG+CAGCACATATAGCACGTCG ((((((((...((((((((+))))))))...)))))))) | 49.6 °C |
| CGACGTGCCTAATGTGCTG+CAGCACATATCGCACGTCG ((((((((...((((((((+))))))))...)))))))) | 47 °C |
| CGACGTGCCTAATGTGCTG+CAGCACATCACGCACGTCG ((((((((.(.((((((((+)))))))).).)))))))) | 46.3 °C |
| CGACGTGCCTAATGTGCTG+CAGCACATCCAGCACGTCG ((((((((...((((((((+))))))))...)))))))) | 48.7 °C |
| CGACGTGCCTAATGTGCTG+CAGCACATCCGGCACGTCG (((((((((..((((((((+))))))))..))))))))) | 52 °C |
| CGACGTGCCTAATGTGCTG+CAGCACATCCTGCACGTCG ((((((((...((((((((+))))))))...)))))))) | 47.9 °C |
| CGACGTGCCTAATGTGCTG+CAGCACATCGCGCACGTCG ((((((((...((((((((+))))))))...)))))))) | 47 °C |
| CGACGTGCCTAATGTGCTG+CAGCACATCTAGCACGTCG ((((((((...((((((((+))))))))...)))))))) | 48.8 °C |
| CGACGTGCCTAATGTGCTG+CAGCACATGAAGCACGTCG ((((((((.(.((((((((+)))))))).).)))))))) | 51 °C |
| CGACGTGCCTAATGTGCTG+CAGCACATGCCGCACGTCG ((((((((...((((((((+))))))))...)))))))) | 48.5 °C |
